According to publication PMC5548887 (2017):

Columns and labels:
UbcH7 K96S = UbcH7 K96S (UniProt P68036 1-154, K96S); assay: ITC
UbcH7 wild type = UbcH7 wild type (UniProt P68036 1-154); assay: ITC

B1: HHARI^ΔHG (protein)
chain: MDSDEGYNYEFDEDEECSEEDSGAEEEEDEDDDEPDDDTLDLGEVELVEPGLGVGGERDGLLCGETGGGGGSALGPGGGGGGGGGGGGGGPGHEQEEDYRYEVLTAEQILQHMVECIREVNEVIQNPATITRILLSHFNWDKEKLMERYFDGNLEKLFAECHVINPSKKSRTRQMNTRSSAQDMPCQICYLNYPNSYFTGLECGHKFCMQCWSEYLTTKIMEEGMGQTISCPACDILVDDNTVMRLITDSKVKLKYQHLITNSFVECNRLLKWCPAPDCHHVVKVQYPDAKPVRCKCGRQFCFNCGENWHDPVKCKWLKKWIKKCDDDSETSNWIAANTKECPKCHVTIEKDGGCNHMVCRNQNCKAEFCWVCLGPWEPHGSAWYNCNRYNEDDAKAA
**Q.** Which results are given for B1?
**A.** Kd (UbcH7 K96S): 15.7 µM; Kd (UbcH7 wild type): 0.965 µM
